Where “and” joins values, the source holds several entries; their conditions need not be identical. Equal values may be shown once.
Legend:
Assay type in all cases: biochemical
proteinase K [1] = target: T1, proteinase K (Parengyodontium album, UniProt P06873); assay: Detection of β-actin RNA in HeLa cell lysates after stop solution (in vitro validation); conditions: FIG. 6; ~10,000 HeLa cells lysed, β-actin RT-PCR
Experimental: HeLa cells (˜10,000 cells) were lysed in 50 μl lysis solution for 5 minutes at room temperature. Stop solution (5 μl) was then added; the lysate-stop solution was mixed, and incubated for 2 minutes at room temperature. A volume of 10 μl of stopped lysate was added to a 50 μl RT reaction followed by addition of 4 μl of RT reaction into a 20 μl PCR reaction using the β-actin primers/probe of the TaqMan® Gene Expression Cells-to-CT™ Kit (Applied Biosystems).

proteinase K [2] = target: T1, proteinase K; assay: Indirect linked assay: proteinase K inhibition read out by reverse transcriptase real time PCR of Xeno RNA template (Cells-to-CT kit); conditions: for lowest concentration in the stopped mixture with inhibitory activity for proteinase K: Example 2, FIG. 1, tested 1 mM to 0.05 mM in stopped mixture; for proteinase K inhibitory activity: all concentrations tested; for Ct (cycle threshold): all concentrations tested (1 mM to 0.05 mM), no Xeno RNA detected
Excerpt: The present example provides for inhibition of proteinase K in the context of preparing samples for nucleic acid detection. Said preparation of samples is described by pending U.S. patent application Ser. No. 12/122,274 filed May 16, 2008 entitled “Sample Preparation for In Situ Nucleic Acid Analysis, Methods and Compositions Therefor,” hereby incorporated by reference in its entirety. Embodiments of said patent application provide a process for preparing a sample containing RNA for in situ analysis of RNA or a surrogate thereof. In some embodiments, the process comprises contacting the sample containing RNA with a lysis mixture comprising a polypeptide having protease activity under conditions and for a time to produce a lysate, and admixing at least a portion of the lysate with a stop mixture that comprises an inhibitor of the polypeptide having protease activity at substantially the same temperature as the contacting step to form a stopped mixture. The resultant stopped mixture is preferably compatible with in situ reverse transcriptase and DNA polymerase reactions.
Methoxysuccinyl tetrapeptide chloromethylketone compounds synthesized as set forth in Example 1 herein were analyzed for inhibitory activity of proteinase K in such stopped mixtures as described below. Functional validation for the nucleic acid detection system using inhibitors of embodiments herein was carried out by measuring mRNA levels in biological samples using the TaqMan® Gene Expression Cells-to-CT™ Kit and the TaqMan® Cells-to-CT™ Control Kit (Applied Biosystems, Foster City, Calif.). MicroAmp® optical 96-well reaction plates were purchased from Applied Biosystems. Disposable reagent reservoirs were purchased from VistaLab Technologies, Inc (Mt. Kisco, N.Y.). Reverse transcription (RT) reactions were performed at 37° C. for 60 min, 95° C. for 5 min, and cooled to 4° C. by using GeneAmp® PCR systems 9700 (Applied Biosystems). Real time PCR was performed by using 7500 Fast Real-Time PCR System. (Applied Biosystems).
The present indirect linked assay measures the amount of inhibition of proteinase K activity by assaying reverse transcriptase real time PCR amplification of a template, which amplification is dependent upon reverse transcriptase activity.
Stop solutions (100 μl) contained the following reagents (10× concentration):
Test inhibitor, 11 mM (final concentration when diluted into stopped mixture is 1 mM). Test inhibitor was also used at concentrations such that, when diluted with a lysis mixture to form a stopped mixture as described below, the final concentration of inhibitor in the stopped mixture was 0.75 mM, 0.5 mM, 0.25 mM, 0.10 mM, 0.05 mM and 0 mM (control).
Proteinase K lysis solution (50 μL (no added DNase)) from the TaqMan® gene expression Cells-to-CT™ kit (Applied Biosystems) was aliquoted into 18 tubes. To the test samples (these are a working equivalent to lysis mixtures in the Cells-to-CT™ workflow), stop solution (5 μL) was added; the tubes were mixed and held for 2 min at room temperature. For the control reactions, 50 μl of proteinase K buffer was mixed with 5 μl of stop mix without inhibitor and the resulting reaction mixture was heated at 95° C. for 10 min to thermally inactivate the proteinase K reaction. Next, reverse transcription reagents were prepared, i.e. 15 μL 2×RT buffer, and 1.5 μL of 20×RT enzyme mix, were aliquoted and mixed in the wells of a 96 well plate. To this RT solution, 13.5 μL of each proteinase K containing stopped mixture was added and the solution was mixed well. The resulting mixtures were incubated at room temperature for 1 hr for residual proteinase K activity to degrade the RT enzyme. After 1 hr incubation at room temperature, 1 μL of Xeno™ RNA Control template (Applied Biosystems P/N 4386995 diluted to 25,000 copies/μL in 10 ng/μL poly A) was added to all wells except for the no template control wells. […]

proteinase K [3] = target: T1, proteinase K; assay: Direct assay: residual proteinase K activity on BSA substrate, precast SDS protein gel
Experimental: For the precast SDS denaturing protein gel analysis data of FIG. 3, proteinase K (50 μl of 100 μg/ml) lysis mixture without DNase (as for Example 2) was mixed with 5 μl of stop solution with varying amounts of MeOSuc-AAPF-CH2Cl (SEQ ID NO:5) and incubated for 10 min at room temperature. Ultrapure BSA (10 μl of 5 mg/ml, Applied Biosystems) was added to each sample and the samples were held for 10 min at room temperature. The reaction mixture was heated for 30 min at 95° C. and analyzed using precast protein gels (BIO-RAD, Hercules, Calif.). From the 65 μl of total reaction mixture, 10 μl reaction mixture was mixed with 5 μl of gel loading dye and further heated at 95° C. for 5 min. Then, the reactions were kept on ice for 2 min and loaded on the gel. Control reactions, with and without BSA, were also carried out. […]
The precast protein gel was run at 120 V for 1 h using 1× Tris/glycine/SDS buffer (BIO-RAD, Hercules, Calif.). […] The gel was analyzed using AlphaEase™ FC software (Alpha Innotech, San Leandro, Calif.). […]
Proteinase K (50 μl of 100 μg/ml) lysis mixture without DNase (as for Example 2) was mixed with 5 μl of stop solution with varying amounts of MeOSuc-AAAPL-CH2Cl (SEQ ID NO:7) and incubated for 10 min at room temperature. […] The reaction mixture was heated for 30 min at 95° C. and analyzed using precast protein gels (BIO-RAD, Hercules, Calif.). […]

proteinase K [4] = target: T1, proteinase K; assay: Direct assay: residual proteinase K activity on BSA substrate, Protein 80 Bioanalyzer chip; conditions: FIG. 2
Experimental: A direct assay for inhibition of proteinase K activity by MeOSuc-AAPF-CH2Cl (SEQ ID NO:5) was carried out using bovine serum albumin (BSA) as substrate and analyzing products using each Bioanalyzer chips and precast protein gels. Such direct assays were carried out to separate inhibition of proteinase K by a test inhibitor from any effects the stopped mixture may have on an RT-PCR reaction.
The reaction mixtures included the proteinase K solution (50 μL, 100 μg/ml) mixed with 5 μL of stop solution having varying amounts of tetrapeptide, MeOSuc-AAPF-CH2Cl (SEQ ID NO:5), as for Example 2. Incubation was for 10 min at room temperature. To assay for proteinase K activity, ultrapure BSA (12 μL of 50 mg/ml) was added to each sample and the samples were held for 10 min at room temperature. Resultant mixtures were heated for 30 min at 95° C. and analyzed using a Protein 80 Bioanalyzer chip (2100 Bioanalyzer, Agilent, Santa Clara, Calif.). The Bioanalyzer protein gel data is provided in FIG. 2, in which intact Ultrapure BSA (Applied Biosystems) is at about 70 kDa, and proteinase K is at about 35 kDa. The lanes of FIG. 2 are labeled as follows from left to right: Ladder; BSA only; No BSA (proteinase K only); MeOSuc-AAPF-CH2Cl (SEQ ID NO:5) in the stopped mixture at 1 mM, 0.75 mM, 0.5 mM, 0.25 mM, 0.125 mM, and 0 mM.

T1 sequence (P06873 106-384): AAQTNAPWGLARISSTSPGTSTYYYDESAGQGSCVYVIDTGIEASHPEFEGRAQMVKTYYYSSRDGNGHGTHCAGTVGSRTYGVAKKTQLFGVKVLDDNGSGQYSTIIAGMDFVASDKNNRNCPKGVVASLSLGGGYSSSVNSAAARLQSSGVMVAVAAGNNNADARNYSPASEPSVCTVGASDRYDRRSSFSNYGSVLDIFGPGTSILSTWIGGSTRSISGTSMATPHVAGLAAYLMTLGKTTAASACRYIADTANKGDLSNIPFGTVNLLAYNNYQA

Substance: MeOSuc-AlaAlaAlaProPhe-CH2Cl (AAAPF; HELM PEPTIDE1{[COC(=O)CCC(=O)[*:2]].A.A.A.P.F.[ClC[*:1]]}$$$$V2.0; SMILES COC(=O)CCC(=O)N[C@@H](C)C(=O)N[C@@H](C)C(=O)N[C@@H](C)C(=O)N1CCC[C@H]1C(=O)N[C@@H](Cc1ccccc1)C(=O)CCl) [MeOSuc-AAAPF-CH2Cl]
- concentration providing effective inhibition of proteinase K (proteinase K [1]): about 0.1 mM
- concentration required to achieve the same level of inhibition as MeOSuc-AAPF-CH2Cl at 0.05 mM (proteinase K [2]; FIG. 5 compared to FIG. 1): 0.1 mM

Substance: MeOSuc-AlaAlaAlaProVal-CH2Cl (AAAPV; HELM PEPTIDE1{[COC(=O)CCC(=O)[*:2]].A.A.A.P.V.[ClC[*:1]]}$$$$V2.0; SMILES COC(=O)CCC(=O)N[C@@H](C)C(=O)N[C@@H](C)C(=O)N[C@@H](C)C(=O)N1CCC[C@H]1C(=O)N[C@H](C(=O)CCl)C(C)C) [MeOSuc-AAAPV-CH2Cl]
- concentration providing effective inhibition of proteinase K (proteinase K [1]): 0.5 mM
- concentration required to achieve the same level of inhibition as MeOSuc-AAPV-CH2Cl at 0.25 mM (proteinase K [2]; FIG. 5): 0.75 mM

Substance: methoxysuccinyl-AAAPL-chloromethyl ketone (HELM PEPTIDE1{[COC(=O)CCC(=O)[*:2]].A.A.A.P.L.[ClC[*:1]]}$$$$V2.0; SMILES COC(=O)CCC(=O)N[C@@H](C)C(=O)N[C@@H](C)C(=O)N[C@@H](C)C(=O)N1CCC[C@H]1C(=O)N[C@@H](CC(C)C)C(=O)CCl) [MeOSuc-AAAPL-CH2Cl]
- concentration providing effective inhibition of proteinase K (proteinase K [1]): about 0.1 mM
- lowest concentration in the stopped mixture inhibitory for proteinase K activity (proteinase K [2]; Example 6, FIG. 5, tested 1 mM to 0.05 mM): about 0.05 mM
- lowest concentration capable of inhibiting proteinase K (BSA present in gel lane) (proteinase K [3]; FIG. 7, tested 1 mM to 0.05 mM in stopped mixture): 0.1 mM and 0.10 mM

Substance: methoxysuccinyl-AAPF-chloromethyl ketone (HELM PEPTIDE1{[COC(=O)CCC(=O)[*:2]].A.A.P.F.[ClC[*:1]]}$$$$V2.0; SMILES COC(=O)CCC(=O)N[C@@H](C)C(=O)N[C@@H](C)C(=O)N1CCC[C@H]1C(=O)N[C@@H](Cc1ccccc1)C(=O)CCl) [MeOSuc-AAPF-CH2Cl]
- lowest concentration capable of inhibiting proteinase K (proteinase K [4]; 10 min incubation with proteinase K (100 μg/ml) before BSA): 0.125 mM
- concentration capable of inhibiting proteinase K when incubated for a longer period prior to BSA (proteinase K [4]; longer incubation with proteinase K before addition of BSA substrate): < 0.125 mM
- lowest concentration in the stopped mixture with inhibitory activity for proteinase K (proteinase K [2]; listed as MeOSuc-AlaAlaProPhe-CH2Cl): 0.05 mM
- average Ct (cycle threshold) (proteinase K [2]; FIG. 1, 0.05 mM inhibitor): about 30
- inhibiting concentration relative to MeOSuc-AAPV-CH2Cl (proteinase K [3]; FIG. 3, compare lanes at 0.5 mM and 0.25 mM): at least half that of MeOSuc-AAPV-CH2Cl

Substance: methoxysuccinyl-AAPL-chloromethyl ketone (HELM PEPTIDE1{[COC(=O)CCC(=O)[*:2]].A.A.P.L.[ClC[*:1]]}$$$$V2.0; SMILES COC(=O)CCC(=O)N[C@@H](C)C(=O)N[C@@H](C)C(=O)N1CCC[C@H]1C(=O)N[C@@H](CC(C)C)C(=O)CCl) [MeOSuc-AAPL-CH2Cl]
- concentration providing effective inhibition of proteinase K (proteinase K [1]): about 0.1 mM

Substance: methoxysuccinyl-APAF-chloromethyl ketone (HELM PEPTIDE1{[COC(=O)CCC(=O)[*:2]].A.P.A.F.[ClC[*:1]]}$$$$V2.0; SMILES COC(=O)CCC(=O)N[C@@H](C)C(=O)N1CCC[C@H]1C(=O)N[C@@H](C)C(=O)N[C@@H](Cc1ccccc1)C(=O)CCl) [MeOSuc-APAF-CH2Cl]
- proteinase K inhibitory activity (proteinase K [2]; FIG. 1): inactive at all concentrations tested
- Ct (cycle threshold) (proteinase K [2]; FIG. 1): 40

Substance: methoxysuccinyl-APAL-chloromethyl ketone (HELM PEPTIDE1{[COC(=O)CCC(=O)[*:2]].A.P.A.L.[ClC[*:1]]}$$$$V2.0; SMILES COC(=O)CCC(=O)N[C@@H](C)C(=O)N1CCC[C@H]1C(=O)N[C@@H](C)C(=O)N[C@@H](CC(C)C)C(=O)CCl) [MeOSuc-APAL-CH2Cl]
- lowest concentration in the stopped mixture with inhibitory activity for proteinase K (proteinase K [2]): about 0.5 mM

Substance: methoxysuccinyl-APAV-chloromethyl ketone (HELM PEPTIDE1{[COC(=O)CCC(=O)[*:2]].A.P.A.V.[ClC[*:1]]}$$$$V2.0; SMILES COC(=O)CCC(=O)N[C@@H](C)C(=O)N1CCC[C@H]1C(=O)N[C@@H](C)C(=O)N[C@H](C(=O)CCl)C(C)C) [MeOSuc-APAV-CH2Cl]
- proteinase K inhibitory activity (proteinase K [2]; FIG. 1): inactive at all concentrations tested
- Ct (cycle threshold) (proteinase K [2]; FIG. 1): 40

Reference: US9114104B2, “Proteinase K inhibitors, methods and compositions therefor” (Life Technologies Corporation, priority 2008, dated 2015)
